Data on 6 molecules can be found in paper PMC6167014 (Cancer research, 2017).

B4: His-BAP1-ULD (601–729) WT (domain or fragment, human, UniProt Q92560 601-729, looked up)
chain: KEVVEATDSREKTGMVRPGEPLSGEKYSPKELLALLKCVEAEIANYEACLKEEVEKRKKFKIDDQRRTHNYDEFICTFISMLAQEGMLANLVEQNISVRRRQGVSIGRLHKQRKPDRRKRSRPYKAKRQ

Experiment [1] deals with T1, GST-BAP1-ULD (human, UniProt Q92560 601-729).
T1 sequence (looked up): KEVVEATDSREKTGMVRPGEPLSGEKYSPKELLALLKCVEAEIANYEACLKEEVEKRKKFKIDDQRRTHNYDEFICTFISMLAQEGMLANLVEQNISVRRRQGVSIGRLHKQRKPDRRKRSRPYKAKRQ
Put plainly: pull-down.

Experiment [2] concerns the target B4. Nature of the experiment: pull-down.
Experiment [3] addresses T2, GST-BAP1 (full length) (human, UniProt Q92560 1-729).
T2 sequence (looked up): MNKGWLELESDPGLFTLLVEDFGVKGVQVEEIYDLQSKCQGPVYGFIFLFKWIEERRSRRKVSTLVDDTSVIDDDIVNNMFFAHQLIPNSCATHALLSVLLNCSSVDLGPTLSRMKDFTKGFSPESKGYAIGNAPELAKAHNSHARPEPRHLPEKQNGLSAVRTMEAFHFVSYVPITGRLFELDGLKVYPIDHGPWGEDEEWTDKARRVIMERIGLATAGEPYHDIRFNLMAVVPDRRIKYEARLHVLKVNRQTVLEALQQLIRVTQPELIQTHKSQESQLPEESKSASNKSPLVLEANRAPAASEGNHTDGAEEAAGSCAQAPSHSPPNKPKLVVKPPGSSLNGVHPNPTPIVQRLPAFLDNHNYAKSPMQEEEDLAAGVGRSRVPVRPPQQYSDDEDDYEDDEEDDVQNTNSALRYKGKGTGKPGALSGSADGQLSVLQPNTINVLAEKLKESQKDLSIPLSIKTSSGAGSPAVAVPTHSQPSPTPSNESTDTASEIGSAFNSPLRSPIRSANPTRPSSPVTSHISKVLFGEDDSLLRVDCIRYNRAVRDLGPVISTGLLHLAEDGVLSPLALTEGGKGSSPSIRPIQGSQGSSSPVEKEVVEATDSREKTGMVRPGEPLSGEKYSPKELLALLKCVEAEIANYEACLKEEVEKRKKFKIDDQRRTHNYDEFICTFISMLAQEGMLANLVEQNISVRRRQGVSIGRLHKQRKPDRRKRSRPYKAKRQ
Put plainly: pull-down.

Experiment [4] addresses T3, GST-BAP1-UCH (1–250 aa) (human, UniProt Q92560 1-250).
T3 sequence (looked up): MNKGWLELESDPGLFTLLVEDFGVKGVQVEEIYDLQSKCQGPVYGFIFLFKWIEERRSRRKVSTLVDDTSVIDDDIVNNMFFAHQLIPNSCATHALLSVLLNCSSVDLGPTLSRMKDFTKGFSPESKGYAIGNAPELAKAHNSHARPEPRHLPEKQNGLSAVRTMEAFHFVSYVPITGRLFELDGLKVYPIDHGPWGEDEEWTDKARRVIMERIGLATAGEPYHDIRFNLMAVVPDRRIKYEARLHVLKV
Nature of the experiment: pull-down.

The target of experiment [5] is T4, His-BAP1-FL ∆E283-S285 (baculovirus) (human, UniProt Q92560 1-729, ∆E283-S285).
T4 sequence (looked up): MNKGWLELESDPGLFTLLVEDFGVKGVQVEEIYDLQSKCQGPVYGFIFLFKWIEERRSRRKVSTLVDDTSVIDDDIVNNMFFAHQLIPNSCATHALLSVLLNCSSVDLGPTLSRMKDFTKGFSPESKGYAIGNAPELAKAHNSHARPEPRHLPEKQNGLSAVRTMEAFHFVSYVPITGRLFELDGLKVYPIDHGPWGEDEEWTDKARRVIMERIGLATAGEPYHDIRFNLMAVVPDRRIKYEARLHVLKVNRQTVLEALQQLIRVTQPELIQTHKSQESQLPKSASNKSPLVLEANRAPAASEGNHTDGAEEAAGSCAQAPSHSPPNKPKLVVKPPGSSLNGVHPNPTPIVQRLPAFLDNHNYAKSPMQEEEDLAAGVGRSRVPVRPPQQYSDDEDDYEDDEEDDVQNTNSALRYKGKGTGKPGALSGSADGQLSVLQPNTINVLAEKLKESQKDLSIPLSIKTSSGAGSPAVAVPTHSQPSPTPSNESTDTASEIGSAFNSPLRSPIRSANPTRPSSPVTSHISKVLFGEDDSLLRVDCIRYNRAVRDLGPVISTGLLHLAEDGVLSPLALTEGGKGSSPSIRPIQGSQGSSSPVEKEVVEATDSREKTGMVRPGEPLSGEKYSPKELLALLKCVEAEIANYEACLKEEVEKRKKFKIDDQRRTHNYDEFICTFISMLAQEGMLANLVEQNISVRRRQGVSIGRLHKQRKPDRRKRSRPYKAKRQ
Put plainly: co-IP.

B1: His-ASXL2-AB (261–381 aa) (domain or fragment, human, UniProt Q76L83 261-381, looked up)
chain: MKRTKCADIDVETPDSILVNTNLRALINKHTFSVLPGDCQQRLLLLLPEVDRQVGPDGLMKLNGSALNNEFFTSAAQGWKERLSEGEFTPEMQVRIRQEIEKEKKVEPWKEQFFESYYGQS
With B1, the binding result in experiment [1], in experiment [2] and in experiment [3] was “binds” each time.

B2: His-BAP1-ULD ∆K637-C638 (sub of N) (domain or fragment, human, UniProt Q92560 601-729, looked up)
chain: KEVVEATDSREKTGMVRPGEPLSGEKYSPKELLALLNVEAEIANYEACLKEEVEKRKKFKIDDQRRTHNYDEFICTFISMLAQEGMLANLVEQNISVRRRQGVSIGRLHKQRKPDRRKRSRPYKAKRQ
Consider B2, for which the binding result in experiment [4] is listed as “binds”.

B3: Flag-ASXL2 (261–649 aa) (baculovirus) (domain or fragment, human, UniProt Q76L83 261-649, looked up)
chain: MKRTKCADIDVETPDSILVNTNLRALINKHTFSVLPGDCQQRLLLLLPEVDRQVGPDGLMKLNGSALNNEFFTSAAQGWKERLSEGEFTPEMQVRIRQEIEKEKKVEPWKEQFFESYYGQSSGLSLEDSKKLTASPSDPKVKKTPAEQPKSMPVSEASLIRIVPVVSQSECKEEALQMSSPGRKEECESQGEVQPNFSTSSEPLLSSALNTHELSSILPIKCPKDEDLLEQKPVTSAEQESEKNHLTTASNYNKSESQESLVTSPSKPKSPGVEKPIVKPTAGAGPQETNMKEPLATLVDQSPESLKRKSSLTQEEAPVSWEKRPRVTENRQHQQPFQVSPQPFLNRGDRIQVRKVPPLKIPVSRISPMPFHPSQVSPRARFPVSITSP
As to B3, the binding result in experiment [3] and in experiment [5] was “binds” throughout. On to B4, for which the binding result in experiment [4] is recorded as “binds”.

B5: His-BAP1-ULD F660P (domain or fragment, human, UniProt Q92560 601-729, looked up)
chain: KEVVEATDSREKTGMVRPGEPLSGEKYSPKELLALLKCVEAEIANYEACLKEEVEKRKKPKIDDQRRTHNYDEFICTFISMLAQEGMLANLVEQNISVRRRQGVSIGRLHKQRKPDRRKRSRPYKAKRQ
In the case of B5, in experiment [4], the binding result is given as “binds”.

B6: His-BAP1-ULD L650P (domain or fragment, human, UniProt Q92560 601-729, looked up)
chain: KEVVEATDSREKTGMVRPGEPLSGEKYSPKELLALLKCVEAEIANYEACPKEEVEKRKKFKIDDQRRTHNYDEFICTFISMLAQEGMLANLVEQNISVRRRQGVSIGRLHKQRKPDRRKRSRPYKAKRQ
In the case of B6, in experiment [4], the binding result is listed as “binds”.
